Laboratory results published in US11123408B2, “Compositions and methods for treating nonsteroidal anti-inflammatory drug (NSAID) associated coagulopathy, thrombocytopenia, glanzmann's thrombasthenia, and/or thrombosis” (YALE UNIVERSITY, priority 2011, dated 2021).

Legend:
[1] = tested on: platelets of a patient donor with a mild platelet storage pool disorder; test: LTA in platelet rich plasma of a patient donor with a mild platelet storage pool disorder; format: cell-based, human; settings: 50 nM NPP4; 2.5 μM ADP; without NPP4 approximately 40%
Protocol: Platelet aggregation was determined by measuring the change in light transmittance of stirred PRP over time after addition of various agonists. Prior to each experiment the aggregometer was standardized to reflect 100% and 0% light transmittance with PPP and PRP, respectively, from the donor whose platelets were used in each specific experiment. 500 μL PRP was added to cuvettes containing a magnetic stir bar and allowed to pre-warm to 37° C. in the aggregometer wells for 3 minutes prior to initiating aggregation reactions which were then conducted at 37° C. Aggregation reactions were initiated by direct addition of agonists and/or enzymes to warmed, stirred PRP, and were monitored for an increase in light transmittance for 10 minutes. The increase in light transmittance is directly proportional to the amount of aggregation and is amplified and digitized into a computer (HP Compaq, Hewlett-Packard, Palo Alto, Calif.) with the AGGRO/LINK8 for Windows software (Chrono-Log Corporation, Havertown, Pa.) to generate aggregation curves. […] The platelet aggregometry experiments for all concentrations of MRS 2395 (including the 0 μM point) were conducted with the plasma adjusted to a final concentration of 10% DMSO to solubilize the inhibitor.
NPP4 rescues platelets exposed to NSAIDs. […]

[2] = Ap4A hydrolysis by NPP enzymes (linked malachite green assay, absorbance change at 259 nm, HPLC); format: biochemical
Protocol: NPP4 nucleotide substrates were identified by directly detecting the free phosphate (Pi) product using malachite green (ADP substrate) or by a linked hydrolysis assay with alkaline phosphatase combined with malachite green (lipid substrates and nucleotide substrates without terminal P1) to measure released Pi. 50 μM substrate P1 equivalents (e.g. 25 μM ADP) were treated with 50 nM NPP4 for 1 hr 37 min (lipids) or 3 hr 15 min (all other substrates). For substrates without terminal phosphates, 10 units of calf intestinal alkaline phosphatase (M0290S, 10,000 units/mL, New England Biolabs, Ipswich, Mass.) was added for a final reaction volume of 50 μL. 100 μL of malachite green (BIOMOL GREEN™, Enzo Life Sciences, Plymouth Meeting, Pa.) was added to quench the reactions. The amount of phosphate released was measured by absorbance at 620 nm by a Biotek Synergy Mx plate reader (Winooski, Vt.) in 96-well plates (3679, Corning Inc., Corning, N.Y.) and compared against a phosphate standard curve.
The kinetics of the steady state Ap3A/Ap4A cleavage by NPP4 was measured from time courses of absorbance change at 259 nm using a UV spectrophotometer with a 0.1 cm optical path length cuvette or a stopped-flow device with a 0.2 cm optical path length cell. The enzymology reactions in 50 mM Tris pH 8.0, 140 mM NaCl, 5 mM KCl, 1 mM MgCl2 and 1 mM CaCl2 were started by addition of 1 μM NPP4 to varying concentrations of Ap3A/Ap4A (up to 800 μM) solution (UV spectrophotometer) or by rapid mixing of NPP4 and Ap3A/Ap4A (stopped-flow). The substrate concentrations higher than 800 μM have absorption too high to be measured by a UV spectrophotometer and stopped-flow, and were therefore measured by HPLC. […] Therefore, the rate of a product production or enzyme turnover measured by the absorption change assay can be calculated by the rate of absorption change
[formula] according to the following formula;
[formula] where Δl is optical path length. The following absorption coefficients were used: Ap3A: 25.75 mM^−1 cm^−1. Ap4A: 25.4 mM^−1 cm^−1. […]
The HPLC protocol used to measure Ap3A/Ap4A cleavage by NPP4 and for product identification is modified from that of Stocchi et al. (1985, Anal Biochem 146:118-24). The reactions containing varying concentrations of Ap3A/Ap4A in the same buffer as in the absorbance change assay were started by addition of 0.2-1 μM NPP4 and quenched at various time points by equal volume of 3 M formic acid, or 0.5 N KOH and re-acidified by glacial acetic acid to pH 6. The quenched reaction solution was diluted systematically and loaded a HPLC system (Waters, Milford Mass.) and substrates and products were monitored by UV absorbance at 254 or 259 nm. […] The products and substrate were quantified according to the integration of their correspondent peaks and the formula: […]

B1: NPP4: soluble recombinant extracellular domain of human NPP4 (NCBI AAH18054.1, residues 1-407 of SEQ ID NO:1), expressed in insect cells (protein, listed as Homo sapiens)
chain: MKLLVILLFSGLITGFRSDSSSSLPPKLLLVSFDGFRADYLKNYEFPHLQNFIKEGVLVEHVKNVFITKTFPNHYSIVTGLYEESHGIVANSMYDAVTKKHFSDSNDKDPFWWNEAVPIWVTNQLQENRSSAAAMWPGTDVPIHDTISSYFMNYNSSVSFEERLNNITMWLNNSNPPVTFATLYWEEPDASGHKYGPEDKENMSRVLKKIDDLIGDLVQRLKMLGLWENLNVIITSDHGMTQCSQDRLINLDSCIDHSYYTLIDLSPVAAILPKINRTEVYNKLKNCSPHMNVYLKEDIPNRFYYQHNDRIQPIILVADEGWTIVLNESSQKLGDHGYDNSLPSMHPFLAAHGPAFHKGYKHSTINIVDIYPMMCHILGLKPHPNNGTFGHTKCLLVDQWCINLPEA
For B1, the “maximum amplitude of aggregation” value [1] was “approximately 65%”, the “Ap4A cleavage (qualitative)” value ([2]; linked alkaline phosphatase / malachite green assay) was “detected cleavage” and the “maximum catalytic turnover rate (kcat) for Ap4A” value ([2]; substrate Ap4A) was about 1 s^−l. The “kcat, Ap4A Hydrolysis by NPP4” value ([2]; substrate Ap4A, steady state) was 0.78 s^−1NPP4^−1 and the Km ([2]; substrate Ap4A, steady state, read-out: KM, Ap4A Hydrolysis by NPP4) was 210 µM.
